Each block holds one substance with its values, some of them ahead of it.
How the values were obtained:
[1] = target: lectin-like transcript 1 (LLT1), recombinantly expressed on cells (human) (UniProt Q9UHP7); test: cell-based or functional assay
[2] = target: LLT1-Fc fusion protein (human) (UniProt Q9UHP7); test: ELISA, coated LLT1-Fc, direct detection of the Fc portion
CLEC2A-Fc protein [3] = target: CLEC2A-Fc protein (UniProt Q6UVW9); test: ELISA, coated CLEC2A-Fc, direct detection of the Fc portion
Sequence of CLEC2A-Fc protein (Q6UVW9 49-174): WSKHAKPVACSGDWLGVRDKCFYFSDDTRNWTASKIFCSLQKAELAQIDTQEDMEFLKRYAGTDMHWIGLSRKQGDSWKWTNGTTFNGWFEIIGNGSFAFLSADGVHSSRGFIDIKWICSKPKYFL

CLEC2D iso2-Fc [4] = test: ELISA, coated CLEC2D iso2-Fc, direct detection of the Fc portion
CLEC2D iso4-Fc [5] = test: ELISA, coated CLEC2D iso4-Fc, direct detection of the Fc portion
[6] = target: LLT1-Fc fusion protein (human) (UniProt Q9UHP7); test: ELISA, coated LLT1-Fc, anti-mIg-HRP detection
CLEC2A-Fc protein [7] = target: CLEC2A-Fc protein (UniProt Q6UVW9); test: ELISA, coated CLEC2A-Fc, anti-mIg-HRP detection
CLEC2D iso2-Fc [8] = test: ELISA, coated CLEC2D iso2-Fc, anti-mIg-HRP detection
CLEC2D iso4-Fc [9] = test: ELISA, coated CLEC2D iso4-Fc, anti-mIg-HRP detection
[10] = target: CD20 on C1R and C1R-LLT1 cells (UniProt P11836); test: cell-based or functional assay
Sequence of CD20 on C1R and C1R-LLT1 cells (P11836 whole entry): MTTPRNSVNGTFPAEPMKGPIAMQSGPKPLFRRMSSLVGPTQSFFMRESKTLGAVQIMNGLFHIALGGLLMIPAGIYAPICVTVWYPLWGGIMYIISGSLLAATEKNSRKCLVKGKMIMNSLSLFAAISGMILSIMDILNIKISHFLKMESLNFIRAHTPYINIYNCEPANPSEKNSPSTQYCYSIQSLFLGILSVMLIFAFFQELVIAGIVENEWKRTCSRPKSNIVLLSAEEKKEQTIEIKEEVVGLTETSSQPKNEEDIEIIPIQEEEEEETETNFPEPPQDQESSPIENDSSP

CD161, on cells = CD161, on cells (UniProt Q12918); test: cell-based or functional assay

Sequence of lectin-like transcript 1 (LLT1), recombinantly expressed on cells (human) (Q9UHP7 whole entry, the tested form may be a part): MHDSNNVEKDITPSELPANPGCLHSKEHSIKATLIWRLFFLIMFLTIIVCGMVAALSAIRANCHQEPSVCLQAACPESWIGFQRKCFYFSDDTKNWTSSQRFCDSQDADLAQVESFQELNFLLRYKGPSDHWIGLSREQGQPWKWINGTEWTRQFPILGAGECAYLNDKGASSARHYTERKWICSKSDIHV
Sequence of LLT1-Fc fusion protein (human) (Q9UHP7 60-191 limits assumed): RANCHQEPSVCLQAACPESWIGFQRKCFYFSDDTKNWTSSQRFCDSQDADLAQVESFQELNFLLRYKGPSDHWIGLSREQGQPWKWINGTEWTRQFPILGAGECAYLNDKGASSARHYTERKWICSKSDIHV

% CD107a+ NK cells (NK cells + C1R-LLT1) [1]: 5.3% | % IFN-γ+ NK cells (NK cells + C1R-LLT1) [1]: 3.3%
Substance: AF3480 (antibody)

OD [2]: 1.08 OD | OD (CLEC2A-Fc protein [3]): 1.15 OD | OD (CLEC2D iso2-Fc [4]): 1.01 OD | OD (CLEC2D iso4-Fc [5]): 1.04 OD
Substance: HRP-conjugated anti-human Ig antibody

% CD107a+ NK cells (NK cells + C1R-LLT1) [1]: 4.7% | % IFN-γ+ NK cells (NK cells + C1R-LLT1) [1]: 3% | OD [6]: 1.21 OD | OD (CLEC2A-Fc protein [7]): 0.104 OD | OD (CLEC2D iso2-Fc [8]): 0.117 OD | OD (CLEC2D iso4-Fc [9]): 0.112 OD
Substance: MAB3480 (antibody)

% CD107a+ NK cells (NK cells + C1R-LLT1) (CD161, on cells): 8.1% | % IFN-γ+ NK cells (NK cells + C1R-LLT1) (CD161, on cells): 5.4%
Substance: anti-CD161 mAb DX12 (antibody)

The remaining lines, values behind:

Substance: anti-CD20 (rituximab) (antibody)
ADCC: specific lysis of C1R and C1R-LLT1 cells by NK cells (chromium release); antibody concentration giving lysis [10]: > 0.16 mg/mL

Substance: anti-CD161 mAb 191B8 (antibody)
% CD107a+ NK cells (NK cells + C1R-LLT1) (CD161, on cells): 13.2% | % IFN-γ+ NK cells (NK cells + C1R-LLT1) (CD161, on cells): 7.4%

Substance: anti-CD161 mAb HP3G10 (antibody)
% CD107a+ NK cells (NK cells + C1R-LLT1) (CD161, on cells): 9.5% | % CD107a+ NK cells, Raji target cells (no mAb 10.3) (CD161, on cells): 13.1% | % CD107a+ NK cells, Ramos target cells (no mAb 8.1) (CD161, on cells): 10.9% | % CD107a+ NK cells, SUDHL4 target cells (no mAb 11.6) (CD161, on cells): 17.5% | % IFN-γ+ NK cells (NK cells + C1R-LLT1) (CD161, on cells): 5.3%

— patent publication US20130164299A1
